Measurements as given in article PMC10248720.

Target: T1, WOX11 (rice, UniProt Q0D3I7 1-262)
T1 sequence: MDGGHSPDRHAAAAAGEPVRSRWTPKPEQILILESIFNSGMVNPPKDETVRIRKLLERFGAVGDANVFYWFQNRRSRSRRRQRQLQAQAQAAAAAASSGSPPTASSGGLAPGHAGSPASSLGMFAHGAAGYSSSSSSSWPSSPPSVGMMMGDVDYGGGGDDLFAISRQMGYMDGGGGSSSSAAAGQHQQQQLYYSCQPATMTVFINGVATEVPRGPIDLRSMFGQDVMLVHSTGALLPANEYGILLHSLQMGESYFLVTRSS
Test: EMSA

B1: PRX111-P2 (dsDNA)
DNA 1: TTCACTTAGCTTAATGCTGCTGGTGGC
DNA 2: GCCACCAGCAGCATTAAGCTAAGTGAA
B1: binds.
